According to patent US20170037425A1, “METHOD FOR IMPROVING PLANT TRAIT” (SHANGHAI INSTITUTES FOR BIOLOGICAL SCIENCES, CHINESE …, priority 2012, published 2017):

Assay: In vitro H2O hydrolysis and oxygen evolution catalyzed by LEAT protein under light
Type: biochemical
Parameters: key to O2 evolution activity: +: similar O2 evolution activity as that of YFP; ++: higher O2 evolution activity than that of YFP by at least one order of magnitude; weak: lower activity than that of YFP by at least one order of magnitude
Conditions: water hydrolysis and O2 evolution under light, relative to YFP
Procedure: 1.85 ml of 50 mM phosphate buffer (pH6.5) was added in the reaction vessel of Clark-type oxygen electrode, then LEAT proteins (at a final concentration of 0.02-1 μg/ml) and 400 μM 2,3,5-trimethyl-1,4-benzoquinone (TMBQ) or other quinones were sequentially added into the buffer in dark. The oxygen evolution rate was measured under the light with corresponding excitation wave length for LEAT proteins and light intensity at 1-2 μmol m^−2 s^−1.

B1: cpGFP: green fluorescent protein from Chiridius poppei (AB185173), SEQ ID NO: 52 (protein, listed as Chiridius poppei)
chain: MTTFKIESRIHGNLNGEKFELVGGGVGEEGRLEIEMKTKDKPLAFSPFLLSHCMGYGFYHFASFPKGTKNIYLHAATNGGYTNTRKEIYEDGGILEVNFRYTYEFNKIIGDVECIGHGFPSQSPIFKDTIVKSCPTVDLMLPMSGNIIASSYARAFQLKDGSFYTAEVKNNIDFKNPIHESFSKSGPMFTHRRVEETHTKENLAMVEYQQVFNSAPRDM
**Q.** With B1 as the molecule, how does the O2 evolution activity read?
**A.** The O2 evolution activity was “+”.

B2: ceriantRFP: red fluorescent protein from Cerianthus sp. DW-2003 (AY296063), SEQ ID NO: 46 (protein, listed as Cerianthus sp.)
chain: MNLSKNVSVSVYMKGNVNNHEFEYDGEGGGDPYTGKYSMKMTLRGQNCLPFSYDIITTAFQYGFRVFTKYPEGIVDYFKDSLPDAFQWNRRIVFEDGGVLNMSSDITYKDNVLHGDVWAVGVNFPPNGPVMKNEIVMEEPTEETFTPKNGVLVGFCPKAYLLKDGSYYYGNMTTFYRSKKSGQAPPGYHFVKHRLVKTNVGHGFKTVEQTEYATAHVSDLPK
**Q.** With B2 as the molecule, how does the O2 evolution activity read?
**A.** Its O2 evolution activity is “++”.

B3: rmueGFP: green fluorescent protein from Renilla muelleri (AY015996), SEQ ID NO: 44 (protein, listed as Renilla muelleri)
chain: MSKQILKNTCLQEVMSYKVNLEGIVNNHVFTMEGCGKGNILFGNQLVQIRVTKGAPLPFAFDIVSPAFQYGNRTFTKYPNDISDYFIQSFPAGFMYERTLRYEDGGLVEIRSDINLIEDKFVYRVEYKGSNFPDDGPVMQKTILGIEPSFEAMYMNNGVLVGEVILVYKLNSGKYYSCHMKTLMKSKGVVKEFPSYHFIQHRLEKTYVEDGGFVEQHETAIAQMTSIGKPLGSLHEWV
**Q.** For B3, which O2 evolution activity is on record?
**A.** Its O2 evolution activity is “++”.

B4: rfloRFP: red fluorescent protein from Ricordea florida (AY037773), SEQ ID NO: 42 (protein, listed as Ricordea florida)
chain: MSALKEEMKIKLTLVGVVNGHPFKIIGDGKGKPYEGSQELTLAVVEGGPLPFSYDILTTIVHYGNRAFVNYPKDIPDIFKQTCSGPGAGYSWQRTMSFEDGGVCTATSHIRVDGDTFNYDIHFMGADFPLNGPVMQKRTVKWEPSTEIMFQCDGLLRGDVAMSLLLKGGGHYRCDFKTIYKPKKNVKMPGYHFVDHCIEITSQQDDYNVVELYEGAVAHYSPLQKPCQAKA
**Q.** For B4, which O2 evolution activity is on record?
**A.** The O2 evolution activity was “++”.

B5: scubGFP: green fluorescent protein from Scolymia cubensis (AY037767), SEQ ID NO: 40 (protein, listed as Echinopora forskaliana)
chain: MQRAGMKVKEHMKIKLRMGGTVNGKHFAVNGTGDGYPYQGKQILKLIVEGSEPLPFAFDILSAAFQYGNRAFTEYPTEIADYFKQSFEFGEGFSWERSFTFEDGAICVATNDITMVGGEFQYDIRFDGLNFPEDGPVMQKKTVKWEPSTEIMYMQNGVLKGEVNMALLLQDKSHYRCDLKTTYKAKNNVPHPPGYHYVDHCIEILEERKDHVKLREHAKARSSLSPTSAKERKA
**Q.** With B5 as the molecule, how does the O2 evolution activity read?
**A.** The O2 evolution activity was “+”.

B6: anm2CP: chromoprotein from Anthomedusae sp. SL-2003 (AY485336), SEQ ID NO: 48 (protein, listed as Anthomedusae sp.)
chain: MEGGPALFQSDMTFKIFIDGVVNDQKFTIIADGSSKFPHGDFNVHAVCETGKLPMSWKPICHLIQYGEPFFAKYPNGISHFAQECFPEGLTIDRTVRFENDGTMTSHHTYELDGTCVISRITVNCDGFQPDGPIMKDQLVDILPTETHMFPHGSNAVRQLCYIGFTTADGGLMMSHFDSKLTFNGSRAIKIPGPHFVTVIIKQMKDTSDKRDHVCQREVTYAHSVPRITSAI
**Q.** For B6, which O2 evolution activity is on record?
**A.** The O2 evolution activity was “+”.

B7: hcriCP: chromoprotein from Heteractis crispa (AF363776), SEQ ID NO: 32 (protein)
chain: MAGLLKESMRIKMYMEGTVNGHYFKCEGEGDGNPFTGTQSMRIHVTEGAPLPFAFDILAPCCEYGSRTFVHHTAEIPDFFKQSFPEGFTWERTTTYEDGGILTAHQDTSLEGNCLIYKVKVLGTNFPADGPVMKNKSGGWEPCTEVVYPENGVLCGRNVMALKVGDRRLICHLYTSYRSKKAVRALTMPGFHFTDIRLQMPRKKKDEYFELYEASVARYSDLPEKAN
modifications: Entacmaea quadricolor
**Q.** Which O2 evolution activity does the source give for B7 here?
**A.** Its O2 evolution activity is “+”.

B8: efasCFP: cyan fluorescent protein from Eusmilia fastigiata (DQ206397), SEQ ID NO: 36 (protein, listed as Echinopora forskaliana)
chain: MSFSKQVLNDVTMTYFMEGSVNGHDFTIEGEGTGKPYEGHQRFNLRVTKGAPLPFAVDILSAAFAYGNRCFTKYPKEIPDFFKQSLPEDMSWERTMTFEDGGIVAISAHIRLIGNRFEHKSKFVGVNFPADGPVMQRKTLGWEPSSEKMTPRDGILKGYVPSFLVLQGGGNYRCDYDTSYRAMKPVEMPGGHFIQHRIVRRDIKKDSNGNTWQIQEDAFAHNSEVPDSA
**Q.** Which O2 evolution activity does the source give for B8 here?
**A.** The O2 evolution activity was “+”.

B9: spisCP: non-fluorescent chromoprotein from Stylophora pistillata (DQ206398), SEQ ID NO: 38 (protein, listed as Echinopora forskaliana)
chain: MSHSKQALADTMKMTWLMEGSVNGHAFTIEGEGTGKPYEGKQSGTFRVTKGGPLPFAFDIVAPTLKYGFKCFMKYPADIPDYFKLAFPEGLTYDRKIAFEDGGCATATVEMSLKGNTLVHKTNFQGGNFPIDGPVMQKRTLGWEPTSEKMTPCDGIIKGDTIMYLMVEGGKTLKCRYENNYRANKPVLMPPSHFVDLRLTRTNLDKEGLAFKLEEYAVARVLEV
**Q.** Which O2 evolution activity does the source give for B9 here?
**A.** Its O2 evolution activity is “++”.

B10: efofCP/RFP: protein from Echinopora forskaliana (EU498726), SEQ ID NO: 34 (protein, listed as Echinopora forskaliana)
chain: MSVIKQVMKTKLHLEGTVNGHDFTIEGKGEGKPYEGLQHMKMTVTKGAPLPFSVHILTPSHMYGSKPFNKYPADIPDYHKQSFPEGMSWERSMIFEDGGVCTASNHSSINLQENCFIYDVKFHGVNLPPDGPVMQKTIAGWEPSVETLYVRDGMLKSDTAMVFKLKGGGHHRVDFKTTYKAKKPVKLPEFHFVEHRLELTKHDKDFTTWDQQEAAEGHFSPLPKALP
**Q.** For B10, which O2 evolution activity is on record?
**A.** The O2 evolution activity was “+”.

B11: phiYFP: yellow fluorescent protein from Phialidium sp. SL-2003 (AY485333), SEQ ID NO: 50 (protein)
chain: MSSGALLFHGKIPYVVEMEGNVDGHTFSIRGKGYGDASVGKVDAQFICTTGDVPVPWSTLVTTLTYGAQCFAKYGPELKDFYKSCMPEGYVQERTITFEGDGVFKTRAEVTFENGSVYNRVKLNGQGFKKDGHVLGKNLEFNFTPHCLYIWGDQANHGLKSAFKIMHEITGSKEDFIVADHTQMNTPIGGGPVHVPEYHHITYHVTLSKDVTDHRDNMSLVETVRAVDCRKTYL
modifications: Aequorea Victoria
**Q.** Which O2 evolution activity does the source give for B11 here?
**A.** The O2 evolution activity was “++”.
